Assay results reported in patent US20230174596A1 (published 2023).

target: T1, hVEGF-A (8-109) (human, UniProt P15692 214-315); experiment: spot phage ELISA
T1 construct: residue numbers count on mature VEGF-A; dimer
T1 sequence (looked up): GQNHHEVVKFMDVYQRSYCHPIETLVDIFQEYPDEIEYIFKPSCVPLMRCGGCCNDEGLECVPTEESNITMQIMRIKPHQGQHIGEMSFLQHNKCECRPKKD

| Binder | ELISA | S/N |
| --- | --- | --- |
| GCPRILMRCKQDSDCLAGCVCGPNGFCG [EETI-II] | 0.01 | 1.11 |
| GCKKWQWWYMCKQDSDCLAGCVCYPWTECG (designed binder) [VEGF_CKP4] | 2.6 | 35.3 |
| GCHLFEPLWGCKQDSDCLAGCVCHWYQSCG (designed binder) [VEGF_CKP9.L1.2] | 1.6 | 12.5 |
| GCPAIQNWKEHPCKQDSDCLAGCVCSWWPSLCG (designed binder) [VEGF_CKP5] | 1.9 | 28.4 |
| GCQVMRPFWGCKQDSDCLAGCVCHWYQSCG (designed binder) [VEGF_CKP9.L1.7] | 1.5 | 8.9 |
| GCQVMQPAWGCKQDSDCLAGCVCHWYQSCG (designed binder) [VEGF_CKP9.L1.8] | 1.2 | 12.8 |
| GCHRLQPLWGCKQDSDCLAGCVCHWYQSCG (designed binder) [VEGF_CKP9.L1.19] | 1.4 | 11.6 |
| GCNPMLPFWGCKQDSDCLAGCVCHWYQSCG (designed binder) [VEGF_CKP9.L1.57] | 3.7 | 31.8 |
| GCNVLLPLWGCKQDSDCLAGCVCHWYQSCG (designed binder) [VEGF_CKP9.L1.64] | 2.3 | 19.9 |
| GCDIMQPLWGCKQDSDCLAGCVCHWYQSCG (designed binder) [VEGF_CKP9.L1.68] | 2 | 23.2 |
| GCDLMQPLWGCKQDSDCLAGCVCHWYQSCG (designed binder) [VEGF_CKP9.L1.76] | 2.5 | 17.4 |
| GCNPMLPLWGCKQDSDCLAGCVCHWYQSCG (designed binder) [VEGF_CKP9.L1.78] | 3 | 25.1 |
| GCQVLQPSWGCKQDSDCLAGCVCHWYQSCG (designed binder) [VEGF_CKP9.L1.79] | 1.2 | 10 |
| GCQLMQPFWGCKQDSDCLAGCVCRWYNSCG (designed binder) [VEGF_CKP9.L5.7] | 1.4 | 18.9 |
| GCQLMQPFWGCKQDSDCLAGCVCHWYQSCG (designed binder) [VEGF_CKP9.L5.18] | 1.6 | 20.4 |
| GCQLMQPFWGCKQDSDCLAGCVCRWYHSCG (designed binder) [VEGF_CKP9.L5.43] | 0.9 | 13.6 |
| GCDVLQPFWGCKQDSDCLAGCVCHWYQSCG (designed binder) [VEGF_CKP9.2] | 2.4 | 31.1 |
| GCQISQPFWGCKQDSDCLAGCVCHFYNSCG (designed binder) [VEGF_CKP9.3] | 1.6 | 24.5 |
| GCQLLEPMWGCKQDSDCLAGCVCHWYNSCG (designed binder) [VEGF_CKP9.9] | 1.1 | 19.7 |
| GCKLLQPMWGCKQDSDCLAGCVCRWYQSCG (designed binder) [VEGF_CKP9.14] | 2 | 30.1 |
| GCDRMQPYWGCKQDSDCLAGCVCQWYKSCG (designed binder) [VEGF_CKP9.11] | 1.1 | 14.1 |
| GCQRTQPFWGCKQDSDCLAGCVCRWYQSCG (designed binder) [VEGF_CKP9.22] | 1.2 | 17.2 |
| GCKIMQPLWGCKQDSDCLAGCVCLWYDSCG (designed binder) [VEGF_CKP9.47] | 1 | 14.6 |
| GCNLMHPFWGCKQDSDCLAGCVCHWYQSCG (designed binder) [VEGF_CKP9.51] | 1 | 11 |
| GCALLQPLWGCKQDSDCLAGCVCRWYNSCG (designed binder) [VEGF_CKP9.69] | 1 | 14.3 |
| GCQLLQPLWGCKQDSDCLAGCVCRWYQSCG (designed binder) [VEGF_CKP9.71] | 1 | 16.5 |
| GCRLLEPSWGCKQDSDCLAGCVCQWYQSCG (designed binder) [VEGF_CKP9.72] | 0.6 | 10 |

| Binder | ELISA | S/N |
| --- | --- | --- |
| GCHLLLPLWGCKQDSDCLAGCVCRWYHSCG (designed binder) [VEGF_CKP9.76] | 1.3 | 15.5 |
| GCQLMHPFWGCKQDSDCLAGCVCHWYRSCG (designed binder) [VEGF_CKP8] | 3.9 | 59.4 |
| GCKLFEPLWGCKQDSDCLAGCVCRWYESCG (designed binder) [VEGF_CKP9.96] | 1.2 | 18.4 |
| GCNIMLPFWGCGQSFECLAGCVCQYYQSCG (designed binder) [VEGF_CKP9.54.1] | 2.4 | 29.9 |
| GCNIMLPFWGCGLDYDCLAGCVCQYYQSCG (designed binder) [VEGF_CKP9.54.2] | 0.1 | 26 |
| GCNIMLPFWGCGPELNCLAGCVCQYYQSCG (designed binder) [VEGF_CKP9.54.12] | 2.4 | 38.8 |
| GCNIMLPFWGCQADYACLAGCVCQYYQSCG (designed binder) [VEGF_CKP9.54.14] | 2.5 | 23.5 |
| GCNIMLPFWGCGVDYLCLAGCVCQYYQSCG (designed binder) [VEGF_CKP9.54.16] | 2.4 | 30.8 |
| GCNIMLPFWGCGTNFLCLAGCVCQYYQSCG (designed binder) [VEGF_CKP9.54.31] | 2.3 | 32.5 |
| GCNIMLPFWGCSRDFDCLAGCVCQYYQSCG (designed binder) [VEGF_CKP9.54.44] | 2.4 | 34.4 |
| GCNIMLPFWGCNRDFLCLAGCVCQYYQSCG (designed binder) [VEGF_CKP9.54.48] | 2.5 | 34.9 |
| GCRTPWEPHDITCKQDSDCLAGCVCGPNGFCG (designed binder) [VEGF_CKP11] | 4.1 | 57.5 |
| GCNIMLPFWGCGWDQFCLAGCVCQYYQSCG (designed binder) [VEGF_CKP9.54.51] | 2.5 | 44.5 |
| GCNIMLPFWGCGKDFHCLAGCVCQYYQSCG (designed binder) [VEGF_CKP9.54.56] | 2.3 | 35.8 |
| GCNIMLPFWGCGPDLQCLAGCVCQYYQSCG (designed binder) [VEGF_CKP9.54.59] | 2.3 | 35.4 |
| GCNIMLPFWGCSGDFACLAGCVCQYYQSCG (designed binder) [VEGF_CKP9.54.64] | 2.2 | 22.4 |
| GCNIMLPFWGCGKELNCLAGCVCQYYQSCG (designed binder) [VEGF_CKP9.54.69] | 2.5 | 21.7 |
| GCNIMLPFWGCGWSMDCLAGCVCQYYQSCG (designed binder) [VEGF_CKP9.54.76] | 2.7 | 42.2 |
| GCNIMLPFWGCGYDLQCLAGCVCQYYQSCG (designed binder) [VEGF_CKP9.54.87] | 2.4 | 26.1 |
| GCVTPWKPHWINCKQDSDCLAGCVCGPNGFCG (designed binder) [VEGF_CKP13] | 3.5 | 56.3 |
| GCETDWYPHQIDCKQDSDCLAGCVCGPNGFCG (designed binder) [VEGF_CKP1] | 0.9 | 16.9 |
| GCGETVFEQFLWCKQDSDCLAGCVCGPNGFCG (designed binder) [VEGF_CKP2] | 3.2 | 48.1 |
| GCDDPSFDWSVYCKQDSDCLAGCVCRMYDSCG (designed binder) [VEGF_CKP7.2] | 1.2 | 21.5 |
| GCKNPLFNWALYCKQDSDCLAGCVCQLFDSCG (designed binder) [VEGF_CKP7.8] | 0.5 | 7.5 |
| GCQDPTVNWAVYCKQDSDCLAGCVCQFYQSCG (designed binder) [VEGF_CKP7.17] | 0.8 | 13.4 |
| GCQDPTFNWAEYCKQDSDCLAGCVCQLYQSCG (designed binder) [VEGF_CKP7.19] | 0.6 | 11.1 |
| GCWDPTFNWALYCKQDSDCLAGCVCQMYDSCG (designed binder) [VEGF_CKP7.24] | 0.8 | 13.4 |
